Consider 1 molecule from patent publication US20230365929A1, “METHOD OF DIFFERENTIATION OF PLURIPOTENT STEM CELLS TO RETINAL PIGMENT EPITHELIUM CELLS” (R.P. SCHERER TECHNOLOGIES, LLC, priority 2022, published 2023).

The test system of this assay is Human induced pluripotent stem cells (hiPSCs). Kind of assay: RPE-specific markers expression in hiPSCs differentiated into RPE cells (RTqPCR; FACS). Format: cell-based. Here is the method: Day 0: overall undifferentiated and tight hiPSC morphology was confirmed to be at close to 100% confluency. Otherwise, the cells were fed once more with 4 ml prewarmed iPS Brew medium and instead differentiation was initiate the next day. KSR medium (4 ml needed per 6-well), PD0325901 (PD)/SB431542 (SB)/dorsomorphin (DM) aliquots, as well as Activin A were prepared and/or prewarmed. After thawing and thoroughly mixing all reagents, […] (1:1000 from 1 mM stock), […] (1:2000 from 10 mM stock), […] (1:2000 from 0.5 mM stock) and […] (1:400 from 10 μg/ml stock) were added to 4 ml KSR medium per confluent hiPSC culture well, after vigorously agitating culture plates and completely soaking off iPS Brew medium.
Days 1 and 2: media was prepared as above and old medium replaced on culture wells by 4 ml fresh differentiation medium per well, following vigorous agitation and complete media aspiration.
Day 3: KSR medium with Activin A only was prepared and old medium was replaced on culture wells by 4 ml fresh ActA-only differentiation medium per well, following vigorous agitation and complete media aspiration.
Day 4: fresh KSR+ActA differentiation medium was prepared and feed with 8 ml per well.
Second week: cells were fed daily with 4 ml per 6-well and 8 ml over the weekend.
Third and fourth weeks: no more small molecules were applied during the third and fourth weeks of differentiation. Only Activin A was added to basal media (either KSR or B27 medium) Activin A was added daily to prewarmed basal media, and old medium replaced on cells (1:100 thoroughly mixed).
Day 29 (week 5): newly coated dishes were prepared by coating 12-well (5 μl) or 6-well format (12 μl iM) with 4 x iMatrix-511 in PBS for 1 h at 37° C. KSR medium was prepared and prewarmed for splitting procedure. Differentiated cells were washed with PBS once (4 ml) or twice (2×2 ml), then 1 ml prewarmed TrypLE Se-lec was added. Cells were dissociated using a 1 ml pipette by pipetting up and down several times and results were checked under the microscope. Cell suspension was transferred to 15 ml tube and centrifuged at 300 g for 2 min. A portion of the cells was transferred into a 1.5 ml tube for downstream FACS and/or RT-qPCR analysis. Cells were resuspended in an appropriate amount of KSR medium and cell titer was determined using a Neubauer chamber. 400,000 cells per cm^2 were plated out in 6-well (with 4 ml KSR medium with or without Activin A24) or 12-well format (2 ml medium).
Samples to be analyzed by RT-qPCR were cells directly lysed from culture wells using RA1 buffer from the RNA isolation kit. […] RNA concentration was measured on NanoDrop monitoring A260/280 and A260/230 ratios. […]
In general terms: Real-time PCR tracks product formation cycle by cycle.

B1: Activin A (protein, UniProt P08476 311-426, looked up)
Inhibin beta A chain: GLECDGKVNICCKKQFFVSFKDIGWNDWIIAPSGYHANYCEGECPSHIAGTSGSSLSFHSTVINHYRMRGHSPFANLKSCCVPTKLRPMSMLYYDDGQNIIKKDIQNMIVEECGCS
modifications: homodimer
notes: member of the TGFβ family of proteins; disulfide-linked homodimer (two beta-A chains)
Turning to B1, where the note is “Activin A treatment initiated after signaling inhibition (PSD then A) vs standard simultaneous protocol, FIG. 6”, the RPE gene expression result is “reduced RPE gene expression”. In addition, the “induction of RPE cell fate” value (RTqPCR (OTX2, MITF, PMEL), complete withdrawal of the three small molecules, FIG. 5) is listed as “insufficient for inducing RPE cell fate”. Moreover, for the setting “RTqPCR of RPE-specific markers, non-treated vs Activin A only vs PSD+A, FIG. 2C”, the “induction of the RPE phenotype” value was “not sufficient to induce the RPE phenotype”. The RPE induction result (titration of Activin A: concentration below 20 ng/ml or complete withdrawal, FIG. 7) is recorded as “inferior RPE induction”.
